system: K4 kissing-loop RNA reporter; test: apparent KD of K4 kissing-loop reporter; higher = weaker reporter binding; settings: Eterna round: R107; input ligand: theophylline 20 uM
Experimental: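 RNA-MaP round R107: designed RNA switches with theophylline, tryptophan, arginine or FMN aptamers are transcribed on-chip within common flanks. They are titrated with a labelled K4 kissing-loop RNA reporter in RNA-MaP buffer (100 mM Tris pH 7.5, 80 mM KCl, 4 mM MgCl2), without ligand or with the indicated ligand. Median apparent KD per design.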
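Note: bound reporter read as fluorescence of individual clusters on recovered sequencing chips by microscopy, with normalized cluster intensities fitted with a binding model.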

| Sequence | apparent KD of K4 kissing-loop reporter |
| --- | --- |
| AAGUAGAUCAAGAUCUAGUAUCUAGAUCAACGAGGACCGGUACGGCCGCCACUCGAAUAAUAGAGUGAUGUUCUAAGAUCUACAA [AK1.4 SS Tryptophan A] | 968 nM |
| GCGCGUCAUGUCAGCGGAGACACUGUCGAUACCAGCGCCGCAAGGCGCCCUUGGCAGCGACGCGCUGGAGUGAUGUUCCAGCGUG [#2 Exclusion - Theophylline A Attempt #15 (HarryS)] | 143 nM |
| AAUAAGGUCGCCGAUACCAGCGCAGGCAGAGCAAAGCUCUGCCUAGUAGUGAUGUUACUGCGCCCUUGGCAGCGGUGGCACGACC [Omei KL Theo B SS C v4] | 397 nM |
| AUUUAAUGUAUAGAUUAUAUACAUAAUUCAGAGGAUAUGCGAAGAAGCAGAAGGCUGGUUGCAGUGAUGUUGCUUUUAUAAUUUA [JR_SSFMNA_Sub009] | 171 nM |
| AGGCACGAGCAAGGAUAUCGAGUAGAGUGAUGUUCUGCCUGGGUUGGCUCGGAAGGGCCUUCCCAGCGAGAAGGUGCUCGUGCCU [#2 Same State - FMN A Attempt #16 (HarryS)] | 674 nM |
| ACUGAGCAUGCGGCCGCCACUUCAGAACGUCGCCCAAAGGGCGACGCCUCCAGAGUGAUGUUCUGGAGGACCGGGCAUGUUCAGA [Omei KL Tryp B Exc A v1] | 450 nM |
| AAUGGCGAGUGAUGUUCGCCCACCAAUGAUACCAGUGCCAUCGGACACCCUUGGCAGCAUACGGGCAGUGAUGUUGCUCUUGGAA [Exclusion Theophylline A GF 26] | 200 nM |
| CCUUGGAUUAGCUGUACUUUUCUACGGGAUACCAGUGCGUAACACCACCCUUGGCAGCCCGAUUACCGGCAGUGAUGUUGCCUCU [theeternabot_sameState_KL_Theo_A_41] | 245 nM |
| UCCUGCAAUCGACCACGAAAGUGGAUCGAUACCAGAGUCGAAAGACUCCCUUGGCAGCGAGUGAUGUUCGAGCAGGUAAAAUAAA [#SwitchBubble 23 #K4Late] | 406 nM |
| AAGCAGUCACUCGAAAUCAUCAAAGAUGAACGAGGACCGGUACGGCCGCCACUCGGAGUGAUGUUCCGAAGACUGCAAAAUAAAA [MatMod 2 - Jieux - Exclusion - Tryptophan A] | 274 nM |
| AGAAGAGUGAUGUUCUUCUAUAUCUCAGAAGGAGCGACAUAAAUGUCAGGUAGGUCGCUGAGAUGAAAUCUCACACAGAUCUUGG [Arg A SS t8] | 182 nM |

same assay, conditions: Eterna round: R107; input ligand: tryptophan 2.4 mM

| Sequence | apparent KD of K4 kissing-loop reporter |
| --- | --- |
| UGUCAUUGGUCGGCCGCCACUUCGUGUAGAGUGAUGUUUUGUAGGACGGAUCGAAAGAUCUGUCGGAGGACCGGGACCGAUGACU [FiskerMod 17 - Jieux - Same State - Tryptophan B] | 889 nM |
| UGUACCGAGUCAGGAUAUGGCGUCGAAAGACGAAUGCUAGUGAUGUUAGGGAUCUGCGAAAGCAGUCCAGAAGGGACUUGGUACU [FmnBS 26 G36] | 649 nM |
| AGGCACGAGCAAGGAUAUCGAGUAGAGUGAUGUUCUGCCUGGGUUGGCUCGUAAGAGCCUUCUCAGCGAGAAGGUGCUCGUGCCU [#2 Same State - FMN A Attempt #20 (HarryS)] | 944 nM |
| GCGCGGCAGGCGGCCGCCACUCUGACGAGCCACAGUGAUGUUGUGGUCGGAGAAACGUCUUCAUAGAGGACCGGGUUUGUUGUUC [Same State Typtophan A GF 25] | 177 nM |
| ACGAUUUACAGAAGGAGCGUGUAUUUAACUACAAUUAUCAUAGCGAGUGAUGUUCGUUAUACACAGGUAGGUCGCUGUAUAUCGA [JR_ExcArginiB_Sub012] | 397 nM |
| GUAUCGCUAGGAGGAUAUUUCAAUUUGACUCUUUGAGUUAUUACGGAGUGAUGUUCCGAUUUACGGAAAGAAGGCCUAGUGAUAC [FMN B 12] | 179 nM |
| AAUUCUUAUCUUAGUUGAUUUCUAAUUAAACGAGGACCGGUACGGCCGCCACUCGGUUAUGAGUGAUGUUCAUGGAAUUACAUAA [JR_SSTryptoA_Sub019] | 169 nM |
| UGGAUAUCGUUUAGUCUGGUGAGGUCAGAUACCAGACUAGCGAUAGUCCCUUGGCAGCUGAUUAUGAUUGAGUGAUGUUCAAUCG [Theo A Ex t9a] | 180 nM |
| AGACGAGAUGAAGGAUAUGCGGACAAAGUGAUGUUUUGUCCGAAAGUAGGCAGUAAUAUCGAAAAUGCAGAAGGUCAAGAACAUA [theeternabot_exclusion_KL_FMN_B_36] | 145 nM |
| GGAUAGGAUAGAGGAUAUGGUAUAUGCAAGAAUAACUUGUCAUGUAAAUCCAUGAGGAGUGAUGUUCCAGAAGGCUGUCCUAUCG [MatMod 10 - Jieux - Exclusion - FMN B] | 379 nM |
| UCCUACGAGGUAACGUGGAUAUCUCGUUGCAAGGAUAUCUGGAAACAGAGAAGGUGCAACAUUAUCGGCAGUGAUGUUGCUGACC | 280 nM |
| UCGCAAAAGUCGGCCGCCACUCCGGGCCCUAUAAAUGGGCGCAGUGAUGUUGCGGCUAGGCCUCUGAGGACCGGGACUUUGAAGA [Esesbior] | 131 nM |
| AAAAUAAACCAGUGAUGUUGGUGUCUAGAUACCAGCGACGAAAGUCGCCCUUGGCAGCUGUGGACGUACAAAAUAAGUACGUCCU [MatMod 5 - Jieux - Same State - Theophylline A] | 472 nM |
| UGAUACCAGACGGCCGCCACUCCCGCAGGUCAAAGACCUGCGAAGAAGGUUUUUUAGUGAUGUUGGAGGACCGGGUCUGGUAUCU [FiskerMod 20 - Jieux - Exclusion - Tryptophan B] | 689 nM |
| AGUAGUUGGGCGGCCGCCACUGGAACAGCUUUGUCAAAGACAGAGCACUAGAGUGAUGUUCUAGCUAGGACCGGGUCCAACUACA [whbob_SS_Tryp_B_t17] | 991 nM |
| AUACGCGAUAGCGUAUAUAACUUUUCAGAAGGAGCGUGGAAGUACACAGGUAGGUCGCUGAAUAUAGGACUAGUGAUGUUAGUUA [JR_Nu_SSArginiA_Sub025] | 186 nM |
| UGUGAUGUUGUGAUGUUUAGUGUUGUUGGGCAGGAUAUUGUAGAGGCGAGAAGGGCUUGUGUGAUGUAUGAGUGAUGUUUGUAGU [cffdmullin] | 119 nM |
| AGAGAUAUAUGAGGAUAUGAGAUAGUUAAUGAGUGAGUUAUAGUGUAGUUUGGUUAGUGAUGUUAUUUAGAAGGCGUGAGUGAUG [reefmullin] | 83.3 nM |
| AGGGAACGCACGGAUACCAGACUCAUAGUGAUGUUGUGGGUAUAAAUUAGCGCAUACACAGUCCCUUGGCAGCCGCUGAAUGGCC [theeternabot_exclusion_KL_Theo_B_1] | 505 nM |
| GGAUAGGAUAGAGGAUAUGGAAAACACAAAAGUGACUUGUUGUGUUUAUCCAUAGGGAGUGAUGUUCCAGAAGGCUGUCCUAUCG [MatMod 23 - Jieux - Exclusion - FMN B] | 136 nM |
| GUGAUAUCGCAAGGAUAUCCAAUUUCUGCGGAUAAGUGAUGUUUGGCGCCGCCUCAGUUAUGGCAAGGAGAAGGUGCGGCCUAGC [theeternabot_sameState_KL_FMN_B_28] | 383 nM |

| Sequence | apparent KD of K4 kissing-loop reporter |
| --- | --- |
| AGGAUCCGUCGACAAAAGUCGACAUAAACCGAGGAUAUGACGAAAGUCAGAAGGUGGUCAUAAGACCAGUGAUGUUGGUGGAUCC [FmnA 14 #SwitchBubble #K4Late] | 305 nM |
| AGGAUAUAGUGAUGUUAUAUAAGAAGAAAACGAGGACCGGUACGGCCGCCACUCGAAGCGGCUACUAAGAGGGAAAGAAGAGGAA [ExTryptoA.A] | 143 nM |
| AAAGAGUCCUGAGCCGAAGAAGAAGGCGGACGAGGACCGGUACGGCCGCCACUCGAAAGGAGUGCGGCUGAGUGAUGUUUGGCCG [Tryptophan A (C-G optomized)] | 268 nM |
| AGUGGACGUUACCGGAGUGAUGUUUCGGAUACCAGACACGAAAGUGUCCCUUGGCAGCCGUAGUGAUGUUACGGAGUUCACUAAA [KL-XTheo-A12 #KL 2] | 85.1 nM |
| AAAUCGUUCAGAAGGAGCGUGAAUUAUUCUUAAUUAUAUUAUACGAGUGAUGUUCGUGUUUCACAGGUAGGUCGCUGAUCGAUAA [JR_SSArginiB_Sub005] | 84.1 nM |
| UGUCAUUGGUCUGAUACCAGUUAGCGCGAUAAGCGCAAAACUGGAGUGAUGUUCCCAAAUAACCCUUGGCAGCAGACCGAUGACU [MAT - Same State Theophlline B - Mod of Eli - D13] | 176 nM |
| UGUGAACAAAAGUAGAGUGGACCACUAUAGCGAGGACCGGUACGGCCGCCACUCGUACAUGAAUUCAGUGAUGUUGAAAAGAGCU [whbob_EX_Tryp_A_t13] | 209 nM |
| GGAUCUUCCAGUGAUGUUGGUUAAUAUAUCAAGGAUAUGACGAAAGUCAGAAGGUGAAAGACUGGACAAAGUCCAGUCGGAUCCA [KL-SSFMN-A19] | 430 nM |
| UUUGGUUUCUCGGCCGCCACUCGUUGUCUAUCGGCUUCAGGGAUAUAGUGAUGUUAUGUAUAGAAGAGGACCGGGAGAAGGUUCC [ExTryptoB.Dy] | 165 nM |
| UAAUAUCCGUCGGCCGCCACUCACUAGUGAUGUUAGAGGAGUGAUGUUCCACGAGUGAUGUUCGAGAGGACCGGGACGGACGAUG [7th] | 54.9 nM |
| AAGUAGAUCAAGAUCUAGUAUCUAGAUCAACGAGGACCGGUACGGCCGCCACUCGAAUAAUAGAGUGAUGUUCUAAGAUCUACAA [AK1.4 SS Tryptophan A] | 445 nM |
| GCGCGUCAUGUCAGCGGAGACACUGUCGAUACCAGCGCCGCAAGGCGCCCUUGGCAGCGACGCGCUGGAGUGAUGUUCCAGCGUG [#2 Exclusion - Theophylline A Attempt #15 (HarryS)] | 159 nM |
| AAUAAGGUCGCCGAUACCAGCGCAGGCAGAGCAAAGCUCUGCCUAGUAGUGAUGUUACUGCGCCCUUGGCAGCGGUGGCACGACC [Omei KL Theo B SS C v4] | 798 nM |
| AUUUAAUGUAUAGAUUAUAUACAUAAUUCAGAGGAUAUGCGAAGAAGCAGAAGGCUGGUUGCAGUGAUGUUGCUUUUAUAAUUUA [JR_SSFMNA_Sub009] | 59.9 nM |
| AGGCACGAGCAAGGAUAUCGAGUAGAGUGAUGUUCUGCCUGGGUUGGCUCGGAAGGGCCUUCCCAGCGAGAAGGUGCUCGUGCCU [#2 Same State - FMN A Attempt #16 (HarryS)] | 493 nM |
| ACUGAGCAUGCGGCCGCCACUUCAGAACGUCGCCCAAAGGGCGACGCCUCCAGAGUGAUGUUCUGGAGGACCGGGCAUGUUCAGA [Omei KL Tryp B Exc A v1] | 112 nM |
| AAUGGCGAGUGAUGUUCGCCCACCAAUGAUACCAGUGCCAUCGGACACCCUUGGCAGCAUACGGGCAGUGAUGUUGCUCUUGGAA [Exclusion Theophylline A GF 26] | 177 nM |
| CCUUGGAUUAGCUGUACUUUUCUACGGGAUACCAGUGCGUAACACCACCCUUGGCAGCCCGAUUACCGGCAGUGAUGUUGCCUCU [theeternabot_sameState_KL_Theo_A_41] | 192 nM |
| UCCUGCAAUCGACCACGAAAGUGGAUCGAUACCAGAGUCGAAAGACUCCCUUGGCAGCGAGUGAUGUUCGAGCAGGUAAAAUAAA [#SwitchBubble 23 #K4Late] | 486 nM |
| AAGCAGUCACUCGAAAUCAUCAAAGAUGAACGAGGACCGGUACGGCCGCCACUCGGAGUGAUGUUCCGAAGACUGCAAAAUAAAA [MatMod 2 - Jieux - Exclusion - Tryptophan A] | 112 nM |
| AGAAGAGUGAUGUUCUUCUAUAUCUCAGAAGGAGCGACAUAAAUGUCAGGUAGGUCGCUGAGAUGAAAUCUCACACAGAUCUUGG [Arg A SS t8] | 109 nM |
